Data published in the DeepSol protein solubility set.

Assay: soluble on expression in E. coli; label from the status in PepcDB or PDB records

Row | Sequence | soluble on expression in E. coli
1 | MGCGQLDRVDSILVGMSYYNFPSPQGIGNVLVGKAKQTVRIRIPSTNLRKEVVRVGGLLSVSVMAVALSSCSAHPESSLSKSNQLGYAVNDRLVTTNAGSTEGASTNAQLLAGRLYPAPYVSGPKGQLIPNLSMASAQVLPGINQKIVYTISPDAVYSDGEAVTCDDYLLAFTAGTYDYVFDSYMPLMKQIDKVECKPRDREVTVTLKENFGPRWRQLFPAGVILPAHAIARKMGVTLEDLNTVLQSRDVDALQPIAEVWNRGFSLDQFDPDLQVSSGPYKVDRVGDRGEVYLTRNPHYGGQPAEIESVVVWPKGANLKELKDTGSLEIAEVTSSKEIDWLDRNDSTNSFDVQAQSGVLTEELLLANAGVFATRENRQAFASCIDQSSIASESSELSGVEVAPVTARTIRANDPMAGHVKDLTEAHLHSDVEQARRLAGQTIAIGYEGPDARMEAIVANIRRSCEPAGIIVVDAHQEGSGIRDLSRSFTTDHGYQFDKIGTIDVVLKALDPATEFESVATTSNNIAATRQAELSTWDVVPSIPLASQPRVFVVDRRVSNVVLNTDLAGIGWNMDRWFFSKNSK | not soluble
2 | MGSDKIHHHHHHIRPIQRGKANAKVEFGAKIDCSLSEGVVDIERFDFTAFSEGQDFTETLDHYYDLHGHYPDEVLADTLYRNRENLKLCKDLGIRVCGPKLGRHPKNVDAAKRREDTDAENRRGTIERRFAFMKGTLGLDLVNTRTAESLAVKIDAAIVLSNALTLLRVFAIPILILAKFEGEAYRIRYKFTTRVEDMLA | not soluble
3 | MNMNAKIIDQDNKGIGVRVHDNDETEHTVAVGFDGEIQGHSQDGYPDDPAKRTGKENEYVSQARRYAKYYVAKEKGYDVLPWDRDTAAMQRVQTAIESLSDEDFEKYFGTYFDQINSRLPNVTAPVPEPDAVGDDEFVLYLLDVYLDEAGRIEAVSDIHFLYLDDNRERQVVLGDQPLNRDPDARLQLKPNYLPSLEVAQEFFVYHLRCQIRDCYLLRGEEPPEQYRVIGPGLYDAATRYLYEDRPYRPYHKLHADIPGYSLEFDYGFGEQGKEMAKIAGAVADNK | not soluble
4 | MHLPPKLALTTGVLLVALPLATPAWGQPPTPASPLVQQLNNGNWLDPKEAETLRDELYYQRAIHAYMTMLPALNVIGMRDGSEKVFGAGYNVLPVWKERMDARTMVPTPNADVIYSMSYLDLKKTGPLVVKAPANVIGMFTDFFQRTLTDVGAIGPDRARGGLYLILPPDYDGHVPSSYFVVKSPTYNVFLFFRTIMGQGKGKPDPAPAVKAAETTRVYPLWAEEKDIKPMEFPDGSGKHINMMYPVDQEYWTKLKEFVDYEPVSAIDPELRGVLASIGIVKGQPFKPTAREQELLKRAVETAPKMILAMRQLGREDKRHLYYKDRQWERAWAGATAEWMQDSYLDVNQRATFFQIAYSSAPAMVMRTTGAGSKYPFTARDANGEFLNGSATYKLRMPPDAPAALFWAVTAYNVTDGTMPETDQLMPSTNGYYDIPKQKDGSTEIWFGPQKPADVADAAFIKTIPNRNFLVTLRLYGAEDAFYDQTWKPDDVVKVKLEHHHHHH | not soluble
5 | MFSTGSGELCDSSAARAGGSMIHPILAKVTQNLTERSREARAAFIARSQAQEKAGKGRTSLSCGNLAHAVAASCSTEKKAILDFTRSNVAIVTSYNDMLSAHQPYQHYPDRIKMVLAEYGHTAQVAGGVPAMCDGVTQGQPGMDMSLFSRDLIAQATALSLSHNVFDATLLLGICDKIAPGQLMGALSYAHLPTAFMPAGLMATGISNEEKVDIRQKYAAGEVGKDALLNMECQAYHAPGTCTFYGTANTNQLVFEAMGLMLPGSAFVHPHSALRQALNDDATVKIASMTQGSAQYRPLYQVVTEKSLLNGIVALLASGGSTNHTIHMLAVARAAGILLTWQDISDLSDVVPLLAKVYPNGPADMNAFQQAGGVPALMKRLHESKLLHSDVTPVFGEFRDQLTLPELVDGELCWKACEGTRDAQVIAASGECFQTTGGTKMLNGNLGRAVIKVSAVKEEQRIIEAPAVVFQCQHQVEAAYQRGELNKDCIVVVTHNGPAANGMPELHKLMPILGNVQKAGFKVALVTDGRLSGASGKIPSAIHVSPEAVRGGAIGLVRDGDLLRLDCTTGTLENLTDMSHRQALALDTERDQQMWGRELFKVMRQAVSSAEQGASFIV | not soluble
6 | MKFLNVLIVVEDIEKSKKFYYDVLGLKVICDFGENVVLEGNISLQEKKLWLEFINKSDSEVKFNGNDAELYFEEDNFDTFVERLSTMKDIDYVHLAIEHRWGQRAIRFYDLDGHIIEVGETMSSVCRRFLDSGLSIDEVAKRMDVTVEYIESVLELEHHHHHH | soluble
7 | MTVQTAIFDLIKQAKTIIIHRHQRPDPDAIGSQLGLAAIIKASFPAKRVLTPGKQYHGFDWLGQMDEVTEADYQDALVLILDTANQPRIDGELWNQGKTIVKIDHHPNDDAFGDPQWVDVDASSTSEMIYNWYAPLAAELTLTANAARLLYAGIVGDTGRFLYSATKPSTMRAAAALMEAGADAEAVNRIEDTITLPVARLSAYVYEHLTQLDSGAAYVILTNAILDSFAIGDASTAGVVPLPGRIDTVKCWAIFVQQKEGDFRIRLRSKGPSINGVAKNHDGGGHALASGAKAKDQQEIETVVRELDQVASQYEKEVLEHHHHHH | not soluble
8 | MTSKIALFDQTLIASLLQPLSLNQPDFKAYKTKVKLKISEQRNETSGEKELKFEISRSDDFEFLFSETLNNEKYQILARDHDLTVDFDAFPKVIIQHLLCKNIVKNLEEDGEVDARKKAGYHSIADPGKPTEINIILDAEKNFCSFELFSKTPISKGKIFSIKLHAVRGDHLISHLLKICSSQAVKLSTFYKSADELASLRQKCGDLEKQVEKLSGVKEEFEEMSEKFKELEDEVELVKEERENIRLLVEDKEDEVADLKQDTESLQKQLEENQEELEIVGNMLREEQGKVDQLQKRNVAHQKEIGKLRAELGTAQRNLEKADQLLKRNSQQQNQQSLDMRKLGELEADLKEKDSMVESLTETIGILRKELENEKLKAAENMDSFEKLSMENENLKEKIAHYRAQRFSPAPSGLPGLQTGLTNRLTPSFKPVLGPHTPYGANLNSRTPFRDNTTLNFQNSTIATPHAFRFNSQLIADETTGSSVTNTPPAQR | not soluble
9 | MCGRIAQKSAPEDYVEILWPNARLIFDDVAGPRYNIPPGTRPLTMHRLVDQAEALARLPWGYKPHGSRFFMVNAKLETIERHGWPWKLMIGVGRILVPADGWYEWRALDSGPKPAKQSYYIHGDAPLLFAGLSAWRRGAELDEAHGFAIVTNDALGGMVDVHDRRPVALPPELAREWVDPATPVARAKEILRAGLPETAFSWYPVRQEVGSSKYQLPDAVDPLLEHHHHHH | not soluble
10 | MLKRCNAKYSCEIIKEKRADGDDRMATIDLQKKSVKIVLEKKQLTKVTARVGLVLDITGSMRPLYKNGTVQNVVERILAVADQFDDNGLLDVWVYDNEFSRLKPVSEKDFSGYVDREILNNDRLHKFGRNDEPPVMKDVLRKYVTEEPSSYPAFIVFINDGGCKKSIKPIIEASSDKPVFWQFVGIGNGNFDFLNKLDTLEGRVIDNTNFLHIEEIDRISDDELYDALLAEFPFWLKEAKEKGIVREQEPPAEKPKKKGFFSRLFSKLEHHHHHH | soluble
11 | YYTDPSLIRQMWDKLERDGFTGGKILDPSMGTGNFFAAMPKHLREKSELYGVELDTITGAIAKHLHPNSHIEIKGFETVAFNDNSFDLVISNVPFANIRIADNRYDRPYMIHDYFVKKSLDLLHDGGQVAIISSTGTMDKRTENILQDIRETTEFLGGVRLPDSAFKAIAGTSVTTDMLFFQKHLDKGYVA | not soluble
12 | SKAAIYHAFSHKEAKDHDVQELGSQRAEAFVRAFLKQSIPHMSQEDCESHLQRKAVILEYFTRLKPRPRPKKKSKGLSAKQRRDMRLFDIKPEQQRYSLFLPLHELWKQYIRDLCNGLKPDTQPQMIQAKLLKADLHGAIISVTKSKCPSYVGVTGILLQETKHVFKIITREDHLKVIPKLNCVFTIEIDDFISYIYGSKFQLRASERSAKKFKAKGSIDL | soluble
13 | MADRQLLHTAHIPVRWGDMDSYGHVNNTLYFQYLEEARVAWFETLGIDLEGAAEGPVVLQSLHTYLKPVVHPATVVVELYAGRLGTSSLVLEHRLHTLEDPQGTYGEGHCKLVWVRHAENRSTPVPDSIRAAIA | soluble
14 | MAVGEVMRMEIPAGGDLTVTTPELHVLAVDDSIVDRKVIERLLRISSCKVTTVESGTRALQYLGLDGGKGASNLKDLKVNLIVTDYSMPGLSGYDLLKKIKESSAFREVPVVIMSSENILPRIQECLKEGAEEFLLKPVKLADVKRIKQLIMRNEAEECKILSHSNKRKLQEDSDTSSSSHDDTSIKDSSCSKRMKSESENLFSLL | not soluble
15 | SLYAISISERTLEKVNAIIESEIKPNAYLASGDLLVHTSRLFMDTPYQANTLVHHSDLPYALVVNFDGMDCFTYLDYVVALSQASDTPSFFSSLMNIRYKKSHIHFYDRKHFFSDWYALSPQIAIDITEKMSPDAITIPKQLNQKVEGGEYIQGLGVIPRMITYIPSDKITQSVLDNLQNGDLVGVYSPKIGLDVTHTGIIVKENNQILYRNASSLSKYNKVVDLPFMDYIRSKPGIVVLRVE | soluble
16 | MGSDKIHHHHHHMLNEIITIYAITDDLLKAIGHDDDIRRDMIDAEIITTALVAAMFFNGNHSKACAYMKDHKLIPNMLEKSRFNLRLHNLSMLLNDLFHQIGMIIKEISDSTEYLLDSFPVTICDNIRIFQVHLIQSEEYRGYIASKKRYFYGVRVQLISTKSGIPVEFAFLPGSANDVRGLNALPFNLPPGSEVYADAAYTDYTVEDDMAQSSQISLKVMRKKNSKRQDQPWNQYVKQYTRHYIETVFSCITCIFPKSIHAVTYEGFLLKLQAFIFAFTLKSAFM | not soluble
17 | NGWVWKLGMNLTHYKNKVTELPLKDMPQSGVNKLQVGRSVYDFYMKEWAGVDPDNGNPLWYMDEKDANDNLTGKRVTTSDYASANYYYVNKSSLPKVYGGFNTSLSWKGFDLSAIFAYSIGGYIYNRDITMILHNGSLEGRDWSTEILKRWTPENRYTDVPALSTTSNNWNSASTRFLQNNSYMRLKNLTLSYDLPKQWISKLALSSVQVFVQGDNLFTIHRNQGLDPEQGITGITYYRYPAMRTISGGINLSF | not soluble
18 | MGSSHHHHHHGGTGENLYFQGGSGMSNSTEQALLQIAQQIERAVDDEIDRIDQMDDDEILAIRQKRLKQLKEIQARRDEWLRKGHGQYLEIAEPKEFFDNVQSSERIVVHFMRRSTPRCEIIERHLRTIAHEHFETRFCYVDVERIPSLPERFNVMMLPTLMLVEKGHTFHSIIGFDEFGGTDDFTTDTVTQVLAHYGMVNEKGMFAADQNDE | soluble
19 | MGSDKIHHHHHHMIDGDSSPLLRKQSPYPHWQYLHPESGDRLRIVPERGGLVTDWCCNGHELLYLDQERFADPEKSIRGGIPVLFPICGNLPGDLLPLPSGEFILKQHGFARDQPWELQLLEDHSGVKLSFVDSEETRAAYPFSFLLEMVVRPIRNALEIDVNVHNRSQSAMPFSFGLHPYFKVTDLNKVRLEGLPNSCLNHLQMAEAETAIQLAALTEGVDFLTRPAGPVTLVDEASGRSLQLQHENPMDLTVVWTDPPRQMLCLEPWTGPREALISGDRKLEIEAGGQQRLRCSFSINLEKTVRAASC | not soluble
20 | TPPPTQWSYLCHPRVKEVQDEVDGYFLENWKFPSFKAVRTFLDAKFSEVTCLYFPLALDDRIHFACRLLTVLFLIDDVLEHMSFADGEAYNNRLIPISRGDVLPDRTKPEEFILYDLWESMRAHDAELANEVLEPTFVFMRAQTDRARLSIHELGHYLEYREKDVGKALLSALMRFSMGLRLSADELQDMKALEANCAKQLSVVNDIYSYDKEEEASRTGHKEGAFLCSAVKVLAEESKLGIPATKRVLWSMTREWETVHDEIVAEKIASPDGCSEAAKAYMKGLEYQMSGNEQWSKTTR | soluble
